In PMC4324016 (2014):
Where two headings read alike, the source gives them in different places.

How the values were obtained:
[1] = molecular target: T1, HLA-Cw*0102 on TAP deficient 721.174 cells (human (endogenous in 721.174)); test: FACS
[2] = molecular target: T1, HLA-Cw*0102 on TAP deficient 721.174 …; test: FACS; remark: listed apart in the source

Kd [1] [µM] | Kd [2] [µM] | Binder
0.14 |  | VAPWNSDAL [VAPWNSDAL peptide]
0.14 |  | VAPWNSFAL [VAPWNSFAL peptide]
0.19 |  | VAPWNSRAL [VAPWNSRAL peptide]
 | 0.18 | VAPWNSLSL
